Assay results: patent US8257714B2, “Compositions and methods for immunotherapy of cancer and infectious diseases” (priority 2003, dated 2012)
Marks after values point to notes of the source that are not given here.

Experiments:
S-180 tumor = experiment: Murine S-180 tumor model; format: in vivo, BALB/c mice; details: GM-CSF alone, 20 ng/mouse/day
Procedure: In a preferred embodiment, The S-180 cell line (ATCC CCL 8, batch F4805) is chosen as the tumor model because the same line is capable of growing both in animals and in culture (in both serum-containing and serum-free conditions). Tumors are established in mice (BALB/c) by injection of cell suspensions obtained from tissue culture. Approximately […] to 3×10^6 cells are injected intra-peritoneally per mouse. The tumor developed as multiple solid nodules at multiple sites within the peritoneal cavity and cause death in most of the animals within 10 to 15 days. In addition to monitoring animal survival, their condition is qualitatively assessed as tumor growth progressed and used to generate a tumor index as described in the following paragraph.
To establish an estimate of drug activity in tumor model experiments, an index can be developed that combines observational examination of the animals as well as their survival status. […]
The S-180 cell line (ATCC CCL 8, batch F4805) was chosen as the tumor model because the same line was capable of growing both in animals and in culture (in both serum-containing and serum-free conditions). […] In addition to monitoring animal survival, their condition was qualitatively assessed as tumor growth progressed and used to generate a tumor index. […]

[1] = Stability of E1 in human serum albumin; format: physicochemical; details: for loss of activity: in the presence of HSA
From the text: Higher temperature studies also indicate remarkable stability.

[2] = system: influenza virus A/NWS/33 (HINI); experiment: Influenza infection in mice; format: in vivo, BALB/c mice; details: for Mean Day to Death ± SD: mice dying before day 21; for decline in arterial oxygen saturation: days 3-11
From the text: Specific pathogen-free female BALB/c mice were infected intranasally with an LD90 dose of influenza virus A/NWS/33 (HINI). […] Placebo treated mice received bovine serum albumin in phosphate-buffered saline. Mice were observed daily for death.

[3] = Experimental autoimmune encephalomyelitis (EAE) model; format: in vivo, SJL mice
Procedure: Treatments were given daily for 5 days. Linomide is a drug that is known to inhibit EAE and is used as a positive control. […] Severity of EAE is measured by means of the EAE score which starts at […] and increases to a score of 5 when death occurs. For ethical reasons mice are sacrificed when a score of 4 is reached.

[4] = system: Mycobacterium tuberculosis Erdman strain; experiment: Tuberculosis in mice; format: in vivo; details: 0.1, 1.0 or 10.0 ng i.p. days 1-5; day 0, 21 and 42
Procedure: Groups of mice were exposed to Mycobacterium tuberculosis Erdman strain (M.tb) by inhalation on day 0. […] A control group of mice received vehicle only. On day 0, 21 and 42 the colony forming units (cfu) of M.tb in the lung were determined.

[5] = 100 ng/day i.p., schedule 0, 3, 6
[6] = 100 ng/day i.p., schedule −2, 0, 3, 6
[7] = 1,000 ng/day i.p., schedule 0, 3, 6

Row | Molecule | survivorship versus sham injections (S-180 tumor) | loss in activity ([1]; 1 μg/mL, HSA 1, 5 or 10% w/v, 4° C., 4, 11, 25, 39 and 54 days, preliminary) | storage time without loss of activity (DC assay) ([1]; 1 μg/ml with 3% HSA, 4° C.) | loss of activity ([1]; 2 hours 70° C.) | loss of activity ([1]; 6 hours at 55° C.) | loss of activity ([1]; 41 days at 37° C.) | Survive/Total [2, 5] | Mean Day to Death ± SD [2, 5] [days] | Survive/Total [2, 6] | Mean Day to Death ± SD [2, 6] [days] | decline in arterial oxygen saturation ([2]; 1,000 ng) | Survive/Total [2, 7] | Mean Day to Death ± SD [2, 7] [days] | decline in arterial oxygen saturation ([2]; 10,000 ng) | Survive/Total ([2]; 10,000 ng/day i.p., schedule 0, 3, 6, P < 0.05) | Mean Day to Death ± SD ([2]; 10,000 ng/day i.p., schedule 0, 3, 6) [days] | Day 15 EAE Score ± SD ([3]; 0.1 μg i.p. daily for 5 days from day 10) | Day 15 EAE Score ± SD ([3]; 1.0 μg i.p. daily for 5 days from day 10) | Day 15 EAE Score ± SD ([3]; 10.0 μg i.p. daily for 5 days from day 10) | cfu of M.tb in the lung versus control group [4]
1 | GM-CSF: granulocyte macrophage-colony stimulating factor | followed similar survivorship curves | – | – | – | – | – | – | – | – | – | – | – | – | – | – | – | – | – | – | –
2 | ARP E1: recombinant E. tenella ARP from E. coli clone E1 (ATCC PTA-6120), SEQ ID NO:28 (protein, listed as Eimeria tenella) MGEEADTQAWDTSVREWLVDTGRVFAGGVASIADGCRLFGAAVEGEGNAWEELVKTNYQIEVPQEDGTSISVDCDEAETLRAVVDGRAPNGVYIGGTKYKLAEVKRDFTFNDQNYDVAILGKNKGGGFLIKTPNENVVIALYDEEKEQNKADALTTALNFAEYLYQGGF | – | no loss in activity | at least 55 weeks | No loss of activity | No loss of activity | No loss of activity | 2/10 | 12.1 ± 1.6 | 0/10 | 12.3 ± 1.2 | statistically significant reduction | 3/10 | 12.7 ± 2.7 | statistically significant reduction | 5/10* | 12.0 ± 1.4 | 2.7 ± 1.3 | 1.5 ± 1.6 | 1.1 ± 1.5 | no statistically significant difference
